According to the supplement of paper PMC9170038:

Test system: MS2 coat protein
Assay: apparent KD of MS2 coat protein; designed switch direction (-1 OFF switch, 1 ON switch): -1; higher = weaker reporter binding
How it was run: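 For each design, the apparent KD is the median over clusters of curves fitted to normalised cluster fluorescence. Clusters held RNA switches with common flanks, transcribed on Illumina chips by stalled E. coli RNA polymerase. These were titrated with SNAP-549-labelled MS2 coat protein, doubling from 0.7 or 1.5 nM to 3 µM, without input, with 200 uM small-molecule ligand, or with an oligonucleotide input.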

[1] = input ligand: microRNA oligo, concentration not stated
[2] = Eterna round: R95, input ligand: microRNA oligo, concentration not stated
[3] = Eterna round: R95, input ligand: FMN 200 uM
[4] = Eterna round: R95, input ligand: none

Sequence | apparent KD of MS2 coat protein (input ligand: FMN 200 uM) | apparent KD of MS2 coat protein (input ligand: none) | apparent KD of MS2 coat protein [1] | apparent KD of MS2 coat protein [2] | apparent KD of MS2 coat protein [3] | apparent KD of MS2 coat protein [4]
CGCCUGUGAGGAUAUUAGUAGUAGUCAGAAAAGACUAUUACUGAGAAGGUACAUGAGGAUCACCCAUGUUGGCG [Mat - Exclusion 4 - Eli Mod - D41] (Eterna round: R97, puzzle: Exclusion 4) | 14.8 nM | 20 nM |  |  |  | 
UUAUUGUGUGUAGGAUAUGCGUGUUAUUAUUAUGCAGAAGGACAUGAGGAUCACCCAUGUGUAUUGUUAUUAUAUAUUAUAUAU [Title] (Eterna round: R96, puzzle: Exclusion NG 1) | 48.2 nM | 27 nM | 21.2 nM |  |  | 
AGCAUGGUAGGAUAUACGGAGCAUUAGGGUUUGUUGUGUGGACAUGAGGAUCACCCAUGUAGAAGGGCCGUGCA [Mat - Exclusion 2 - Mod of JL - D83] (puzzle: Exclusion 2) |  |  |  | 33.5 nM |  | 
UUAAUAGCAGCGAGAUCCCACAUGAGGAUCACCCAUGUCGUAGACGAAAAGUCUACGUUAGCUCGUCUUAUAAAUAU [Winner reversed engineered 39] (Eterna round: R97, puzzle: Sensor, turn-off variant 1) | 95.1 nM | 111 nM |  |  |  | 
CUUAAAAGGAAGGAUAUGCUAGACGAAAGUCUAGCAGAAGGUCCUACAUGAGGAUCACCCAUGUGUCCUAUAAG [Mat - Exclusion 6 - Eli Mod - D13] (Eterna round: R97, puzzle: Exclusion 6) | 72.4 nM | 81.1 nM |  |  |  | 
AAACGCCGAGGAUAUACCCAACCAGUCCUCUAAAGAAGAAAACAUGAGGAUCACCCAUGUAGAAGGCGGUGCAA [Anorti] (Eterna round: R97, puzzle: Exclusion 2) | 51.8 nM | 28.1 nM |  |  |  | 
CGAUAAAAGACAGGAUAUGAGGAGAGAGAGAGAUCAGAAGGGUCACAUGAGGAUCACCCAUGUGAGUUCUCGAUAAGAAACACC [Prohibition 53 - Jieux - Exclusion NG 1] (Eterna round: R96, puzzle: Exclusion NG 1) | 13.8 nM | 19.3 nM | 14.5 nM |  |  | 
GAUCAUGCAGGAUAUACAUGUUCCAUGAAAACAUGGUCCUCACAUGAGGAUCACCCAUGUAGAAGGGCAUGAUC [Omei Ex2 A31] (Eterna round: R97, puzzle: Exclusion 2) | 132 nM | 1450 nM |  |  |  | 
AAGUAGCAUGCAGGAUAUGGUAAUCGAACGUUACCAGAAGGGCAUGAGGAUCACCCAUGUUCUCAUUUGUAAGAACAGAUGUCU [Ex NG1 #7] (Eterna round: R96, puzzle: Exclusion NG 1) | 251 nM | 94.4 nM | 110 nM |  |  | 
CAUUAUUAUCGAGGAUAUCCUAUUGUAAUACUGGGAGAAGGCGGACUCAACAUGAGGAUCACCCAUGUAAGACGGGUACUAGAU [Ex NG1 #22] (Eterna round: R96, puzzle: Exclusion NG 1) | 228 nM | 163 nM | 139 nM |  |  | 
UUCGUGCAGCUUUGCUGUACGCGUACAUGAGGAUCACCCAUGUAGGAUAUGGUACGCAAAGCGUGCUAGAAGGAUAUGGAGAGG [Mat - Exclusion NG 3 - Mod of JL - D81] (Eterna round: R96, puzzle: Exclusion NG 3) | 11.7 nM | 13.1 nM | 8.08 nM |  |  | 
UAUAUAUAGUAAGGAUAUGUAUAUAUUUUAGAAACAGAAGGUACUGACAUGAGGAUCACCCAUGUUUUAGUGUGGGCAUGUAGA [JMF's solution 67] (Eterna round: R96, puzzle: Exclusion NG 1) |  |  | 52.7 nM |  |  | 
GCCGUACAAGGAUAUACAUGAGGAUCACCCAUGUGUCUCCUCGAGAGCAAACGGCUCUGUAGAAGGUGUCGUAA [EX3 C.20] (Eterna round: R97, puzzle: Exclusion 3) | 16.5 nM | 15.6 nM |  |  |  | 
CCAACCAGAGGAUAUGCGCAUAGAUCAGACUUUGUUUCUUAACAUGAGGAUCACCCAUGUAGAAGGCUGUAACC [Ex2 #76] (Eterna round: R97, puzzle: Exclusion 2) | 21.6 nM | 20 nM |  |  |  | 
CUUUUGUGAGGAUAUUAGUAGUAAAUAAUUAAAAUUAUUACUGAGAAGGCACAUGAGGAUCACCCAUGUUCCUC [Salish 062 v15] (Eterna round: R97, puzzle: Exclusion 4) | 752 nM | 42.9 nM |  |  |  | 
UGAUCUAGCGGAGGAUAUACAUGAGGAUCACCCAUGUAUAGUCCAUGUGGUGACACGUGGAACAUGUAGAAGGCCGCUAGAUCU [JL ENG2 3.83] (Eterna round: R96, puzzle: Exclusion NG 2) | 228 nM | 23.1 nM | 24.8 nM |  |  | 
GGUUGGCGAGGAUAUACAUGAGGAUCACCCAUGUGAGAGAAUAAGUGAGGAAAGAAAAGUAGAAGGCGCUGACG [Mat - Exclusion 3 - Mod of Salish D52] (puzzle: Exclusion 3) |  |  |  | 44.5 nM | 117 nM | 55.1 nM

Sequence | apparent KD of MS2 coat protein (input ligand: FMN 200 uM) | apparent KD of MS2 coat protein (input ligand: none) | apparent KD of MS2 coat protein [1] | apparent KD of MS2 coat protein [2] | apparent KD of MS2 coat protein [3] | apparent KD of MS2 coat protein [4]
CGAUAAAAGACAGGAUAUGAGGAGAGAGAGAGAUCAGAAGGGUCACAUGAGGAUCACCCAUGUGAGUUCUCGAAAUUAAAUAUU [Prohibition 50 - Jieux - Exclusion NG 1] (Eterna round: R96, puzzle: Exclusion NG 1) | 18.8 nM | 18.8 nM | 14.2 nM |  |  | 
UAACUAACUCCUCGGAGCAACAUGAGGAUCACCCAUGUUAUGAACAUUCGGUGUAACAGGAUGUUUGCUCGUCUGGA [Eternabot (Original) Solution 22] (Eterna round: R97, puzzle: Sensor, turn-off variant 1) | 266 nM | 259 nM |  |  |  | 
AUUUUGUCAGGAUAUUAGUAGUAAAUGAAUAAAAUUAUUACUGAGAAGGGACAUGAGGAUCACCCAUGUGUCUU [Mat - Exclusion 4 - Eli Mod - D9] (Eterna round: R97, puzzle: Exclusion 4) | 24.1 nM | 23 nM |  |  |  | 
AGGUAACAUGAGGAUCACCCAUGUCAGGAUAUCAGUAAGAUUAGAAUAGAGUAGAGUAUGAGAAGGGACUAUAU [Excluse me! 20 - Jieux - Exclusion 1] (puzzle: Exclusion 1) |  |  |  | 37.3 nM | 33.3 nM | 50 nM
AUAAUGUGAGGAUAUCAGUCGUACAGCUGCGGCUGUACGACUGAGAAGGCACAUGAGGAUCACCCAUGUGGUCA [E4/5-A3] (Eterna round: R97, puzzle: Exclusion 4) | 70.7 nM | 672 nM |  |  |  | 
CCUCAGUAAGGAUAUCAGCUUAUGGAGUUGGUAAUGAGAGCUGAGAAGGUACAUGAGGAUCACCCAUGUUAGUU [JL Zatite mod 2] (puzzle: Exclusion 4) |  |  |  | 25.4 nM |  | 
UUGUUCCAUGUAGGAUAUGCAUAUUCUCAUUAUGCAGAAGGACAUGAGGAUCACCCAUGUAUGUUAUUAUUAUAUGUUACAUGU [Design 2] (Eterna round: R96, puzzle: Exclusion NG 1) | 613 nM | 78.5 nM | 54.6 nM |  |  | 
AGAAUGCGAGGAUAUACAGCAAGAUAGCAAAAGACCCUCCAACAUGAGGAUCACCCAUGUAGAAGGCGCAUUCA [Eternabot (Original) Solution 19] (Eterna round: R97, puzzle: Exclusion 2) | 110 nM | 109 nM |  |  |  | 
AAUAACAGAGGAUAUACUAUAAUAUGAAUAAAAUAAAUAAAACAUGAGGAUCACCCAUGUAGAAGGCUGAAUAA [JMF's Not so obvious solution 10] (puzzle: Exclusion 2) |  |  |  | 20 nM | 17.1 nM | 21.1 nM
CGGGUGAACAGAGGAUAUCGUACAUGAGGAUCACCCAUGUAAUAAAUGAGAAUUUCGAAUGUAAUCGAGAAGGCUGGAAAACCC [Ostracism 93 - Jieux - Exclusion NG 2] (Eterna round: R96, puzzle: Exclusion NG 2) | 228 nM | 128 nM | 115 nM |  |  | 
UUCUUGGCAGGAUAUGCUCUUUUAGACAUGAGGAUCACCCAUGUGUUUAUUCUUUUUUUUGCAGAAGGGCCUUAAU [JR_E5_Sub044] (Eterna round: R96, puzzle: Exclusion 5) | 176 nM | 98.1 nM | 68.6 nM |  |  | 
AAAUACAAGCAAAGAUCCUACAUGAGGAUCACCCAUGUGCUCGUCUUGUAAAGUACUAUCACGAAAGUGAUAGUACA [Sensor 3, v1 - 16] (puzzle: Sensor v3, turn-off variant 1) |  |  |  | 27.5 nM | 51.9 nM | 70.2 nM
UCAUACGGUGAGGAUAUCUCCACUAAAGUGUGUAGAGAAGGCGCUACAUGAGGAUCACCCAUGUUUAUGGGCAG [Ex-6 Malc#13] (puzzle: Exclusion 6) |  |  |  | 109 nM | 52 nM | 124 nM
UUAAUUAGCUCGCUAGAUCCUCACAUGAGGAUCACCCAUGUGCAGGAUAUCAGCUCGUUUAGAGCUGAGAAGGGCACUGCGAGC [ExNG3/10-A2] (Eterna round: R96, puzzle: Exclusion NG 3) | 147 nM | 114 nM | 120 nM |  |  | 
GGGAAGAACCAACAAGCAAACAUGAGGAUCACCCAUGUAGUAGGAGGAAGAAAGGUGAUUUAGAAAGCUCGACUUAU [AK-miRNA-r3-6] (Eterna round: R97, puzzle: Sensor, turn-off variant 1) | 159 nM | 202 nM |  |  |  | 
CUCUUGUAAGGAUAUCUGACAAGUGACGAAAGUCACAGUUCAGAGAAGGUACAUGAGGAUCACCCAUGUAGAAC [Exclusion 4 - Mod Brourd Ex 4-3: 41] (puzzle: Exclusion 4) |  |  |  | 60.6 nM |  | 
